The values below come from PMC12226076, “Structural insights and rational design of Pseudomonasputida KT2440 omega transaminases for enhanced biotransformation of (R)-PAC to (1R, 2S)-Norephedrine” (The Journal of Biological Chemistry, 2025).

The first data set addresses T1, TA_2799 (Pseudomonas putida, UniProt Q88J50).
T1 construct: gene PP_2799; pET43.1b, 6xHis tag, expressed in E. coli BL21 (DE3), Ni-NTA; homodimer; catalytic K286
The data set can be described thus: X-ray crystal structure, […] Å. The class given is binding. Particulars: covalent; internal aldimine with catalytic K286.
On to `Cc1ncc(COP(=O)(O)O)c(C=O)c1O` [PLP], for which the “X-ray crystal structure, 1.76 Å” value is “covalently bound internal aldimine form of the PLP bound to the catalytic K286 residue”.

For a further data set, the system named is C[C@H](N)c1ccccc1. Briefly: purified protein. The class given is biochemical, Pseudomonas putida. The conditions noted are these: 20 mM pyruvate, 2 mM PLP, 50 mM HEPES pH 8.0, 30 °C, (S)-MBA 0-5 mM.
As to TA_2799 (Pseudomonas putida KT2440), the Km was 6459 ± 621 µM, the Vmax amounted to 0.104 µmol/min/mg, the kcat turned out to be 0.072 ± 0.00465 s⁻¹ and the kcat/Km was 11.1 M⁻¹ s⁻¹.

On to “TA_2799 (Pseudomonas putida KT2440; C324Y/L322F)”, for which the Km stood at 1188 ± 122 µM and the kcat was 0.02302 ± 0.000817 s⁻¹.

With “TA_2799 (Pseudomonas putida KT2440; L322F)”, the Michaelis-Menten constant (Km) is 1068 ± 566 µM, the Vmax came out at 0.042 µmol/min/mg, the kcat was 0.0296 ± 0.0006 s⁻¹ and the kcat/Km was 27.7 M⁻¹ s⁻¹.

With TA_5182 (Pseudomonas putida KT2440), the Km amounted to 1089 ± 117 µM, the Vmax was 0.007 µmol/min/mg, the kcat amounted to 0.0049 ± 0.000117 s⁻¹ and the kcat/Km was found to be 4.48 M⁻¹ s⁻¹.

Take “TA_5182 (Pseudomonas putida KT2440; G119N)”: the Km came out at 347 ± 24 µM, the Vmax was 0.003 µmol/min/mg, the kcat worked out at 0.00245 ± 3.33e-05 s⁻¹ and the kcat/Km turned out to be 7.05 M⁻¹ s⁻¹.
